Results: patent US8440413B2, “Method of screening for a substance that strengthens a bond between thioredoxin and macrophage migration inhibition factor” (Redox Bioscience, Inc., priority 2006, dated 2013)
Numbering of substitutions follows the chain as printed. Read-outs that look alike come from different tables or passages of the source.

T1: bond between rTRX and rMIF (Homo sapiens, UniProt P10599)
T1 construct: His tag; made in house; host or cells: Escherichia coli
T1 sequence (P10599 1-105): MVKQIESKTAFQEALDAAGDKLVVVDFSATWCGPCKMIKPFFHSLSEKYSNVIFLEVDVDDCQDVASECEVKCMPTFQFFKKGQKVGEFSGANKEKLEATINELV

T2: rMIF (Homo sapiens, UniProt P14174)
T2 construct: His tag; made in house; host or cells: Escherichia coli
T2 sequence (P14174 1-115): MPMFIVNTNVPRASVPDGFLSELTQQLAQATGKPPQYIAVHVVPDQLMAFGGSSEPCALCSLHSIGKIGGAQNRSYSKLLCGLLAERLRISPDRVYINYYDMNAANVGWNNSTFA

T3: MIF (Homo sapiens, UniProt P14174)
T3 construct: endogenous in cells; host or cells: ATL2 cells (concentrated culture supernatant)
T3 sequence (P14174 1-115): T2 sequence (P14174 1-115)

B1: rTRX: Recombinant thioredoxin; His-tagged, expressed in Escherichia coli (Examples 5-7); from Ajinomoto in Examples 3-4 (protein)
chain: T1 sequence (P10599 1-105)
modifications: left off: small tags and cut ends
B2: rC35S TRX: the rTRX of Example 5 in which the cysteine residue at 35 position was converted to serine (protein)
chain: T1 sequence (P10599 1-105) with C35S
modifications: left off: small tags and cut ends
B3: rDM TRX: the rTRX of Example 5 in which the cysteine residues at 32 and 35 positions were converted to serine (protein)
chain: T1 sequence (P10599 1-105) with C32S, C35S
modifications: left off: small tags and cut ends

Columns and labels:
[1] = biological target: T1, bond between rTRX and rMIF; test: Screening by molecular interaction analysis (Biacore, SPR) for substances that strengthen the bond between TRX and MIF, Example 7; format: binding; conditions: analyte: rTRX 5 μM mixed with test substance 500 μM (Prostaglandin I2 also 5 μM); compared with rTRX only (FIGS. 7 to 11)
Experimental: For several test substances, it was confirmed with a molecular interaction analysis whether they strengthened the bond between TRX and MIF or not. rMIF was immobilized in a CM5 sensor chip as a ligand. The ligand was adjusted to have the rMIF concentration of less or equal to 200 nM by using running buffer, 10 mM HEPES (pH7.4), 150 mM NaCl, 3 mM EDTA and 0.005% Tween 20. […] In each analyte, the concentration of rTRX was 5 μM and the concentration of the test substance was 500 μM. For Prostaglandin I2, the analyte having its concentration of 5 μM was also analyzed.

ATL2 cells = test: Inhibition of the cell internalization of MIF into ATL2 cells (Western blotting, densitometer); format: cell-based, human; conditions: rTRX 0 to 250 μg/ml, 25 μg/ml rMIF, 24 hours (FIG. 3)
Experimental: MIF is internalized (incorporated) into cells by the autocrine or paracrine action to induce the production of inflammatory cytokine TNF-alpha(α) or IL-1. Thus, the effects of TRX on the cell internalization of MIF were examined to clarify the inflammation response control mechanism.
ATL2 cells were cultured with RPMI 1640 medium containing 10% FCS, 100 U/ml penicillin and 100 μg/ml streptomycin in a 75 cm^2 flask.
1×10^6/cell of ATL2 cells were added to a 24 well plate. rTRX having the final concentration of 0 to 250 μg/ml and 25 μg/ml rMIF were also added thereto, and cultured under the condition of […] at 37° C. for 24 hours.
After cells were collected, the precipitation was mixed with SDS-PAGE sample buffer, and then electrophoresed on a 15% SDS-PAGE gel. After the electrocataphoresis, a Western blotting was performed to detect MIF internalized in the cells with anti His-tagged antibody. The change of the band by the Western blotting was analyzed with a densitometer.

rMIF [2] = biological target: T2, rMIF; test: Molecular interaction analysis (Biacore, SPR) of rTRX variants and rMIF in oxidation and reduction states, Example 6; format: binding; conditions: for change of the dissociation constant value between oxidation state and reduction state: oxidation state versus reduction state; for Kd: rMIF immobilized on CM5 sensor chip, read-out: KD (dissociation constant value)
Experimental: It was confirmed with a molecular interaction analysis whether the cysteine residues at 32 and 35 positions (the active site of TRX) affect the bond between TRX and MIF or not.
rMIF was immobilized in a CM5 sensor chip as a ligand, wherein the concentration of rMIF was adjusted to less than or equal to 200 nM.
Then, rWT TRX, rDM TRX and rC35S TRX were used as analytes to analyze the interaction between these rTRX and rMIF in both oxidation and reduction states, respectively.
In the oxidation state, running buffer, 10 mM HEPES (pH7.4), 150 mM NaCl, 3 mM EDTA and 0.005% Tween 20 were used to adjust the ligand. In the reduction state, 1M DTT was used in addition to the running buffer, 10 mM HEPES (pH7.4), 150 mM NaCl, 3 mM EDTA and 0.005% Tween 20 to adjust the ligand.
Tables 1 and 2 show the dissociation constant value (KD value) calculated from FIG. 6.

MIF [3] = biological target: T3, MIF; test: Immunoprecipitation / Western blotting of the bond between TRX and MIF outside ATL2 cells (culture supernatant); format: binding; conditions: anti MIF antibody immunoprecipitation, anti TRX Western blotting (FIG. 2)
Experimental: The bond between TRX and MIF outside ATL2 cells was confirmed with an immunoprecipitation method.
1×10^5/cell of the ATL2 cells were cultured with RPMI 1640 (SIGMA Inc.) medium containing 100 U/ml penicillin and 100 μg/ml streptomycin in a 175 cm^2 flask for 3 days. Then, the medium was collected and centrifugated at 10,000 rpm and 4° C. for 15 minutes. Then, FCS was added to the obtained supernatant to adjust the final concentration to 10%, and the solution was concentrated with Amicon ultra-4. The obtained concentrated-solution was used for the immunoprecipitation experiment. 20 μl Protein G Sepharose and 30 μl of the culture supernatant were added to a microtube, and phosphate buffer was used to adjust the amount to 1 ml. The obtained solution was reacted at 4° C. for 3 hours with a small rotary incubator. The cell solution was centrifugated at 15,000 rpm and 4° C. for 2 minutes. The obtained supernatant was added to a new microtube, and 20 μl Protein G Sepharose and 4 μg/ml of the anti MIF antibody were also added thereto.
(§1) For a control, anti Rabbit antibody was used instead of the anti MIF antibody.
The reaction was carried out with a small rotary incubator at 4° C. for overnight. The reaction solution was centrifugated at 15,000 rpm and 4° C. for 2 minutes. The precipitation was washed with washing buffer (50 mM Tris-HCl (pH7.5), 150 mM NaCl, 0.1% NP40). […]

MIF [4] = biological target: T3, MIF; test: Immunoprecipitation / Western blotting of the bond between TRX and MIF in cells; format: cell-based; conditions: ATL2 cells and HL60 cells; anti MIF antibody immunoprecipitation, anti TRX Western blotting (FIG. 1)
Experimental: The bonds between TRX and MIF in ATL2 cells and HL60 cells were confirmed with an immunoprecipitation method (to be described in detail below).
The cells were cultured with RPMI 1640 (SIGMA Inc.) medium containing 10% FCS, 100 U/ml penicillin and 100 μg/ml streptomycin in a 175 cm^2 flask.
1×10^7˜8/cell of the cells were collected and centrifugated at 1,000 rpm and 4° C. for 15 minutes. The obtained precipitation was dissolved with lysis buffer and left on the ice for 30 minutes.
The solution was centrifugated at 1,000 rpm and 4° C. for 15 minutes. The obtained supernatant was used for the immunoprecipitation experiment. The concentration of the protein was measured with DC protein assay kit (BIO RAD Inc.).
20 μl Protein G Sepharose and 500 μg of the cell solution were added to a microtube, and phosphate buffer was used to adjust the amount to 1 ml. The obtained solution was reacted at 4° C. for 3 hours with a small rotary incubator. The cell solution was centrifugated at 15,000 rpm and 4° C. for 2 minutes. The obtained supernatant was added to a new microtube, and 20 μl Protein G Sepharose and 4 μg/ml anti MIF antibody were also added thereto.
as §1
The reaction was carried out with a small rotary incubator at 4° C. for overnight. The reaction solution was centrifugated at 15,000 rpm and 4° C. for 2 minutes. […]

rMIF [5] = biological target: T2, rMIF; test: Molecular interaction analysis (Biacore, SPR) of the bond between rTRX and rMIF, Example 5; format: binding; conditions: rMIF immobilized on CM5 sensor chip; rTRX 2 to 12 μM (FIG. 5)
Experimental: The bond between TRX and MIF was confirmed with a molecular interaction analysis (Biacore) (hereinafter, referred to as “molecular interaction analysis”) utilizing surface plasmon resonance (SPR) phenomenon.
rMIF was immobilized in a CM5 sensor chip as a ligand. The ligand was adjusted to include MIF less or equal to 200 nM by using running buffer, 10 mM HEPES (pH7.4), 150 mM NaCl, 3 mM EDTA and 0.005% Tween 20.
Then, rTRX was used as an analyte to analyze the interaction between rTRX and rMIF. The concentration of rTRX was changed to 2 μM, 4 μM, 6 μM, 8 μM, 10 μM and 12 μM for the analysis.

RAW 264.7 cells = test: Inhibition of MIF activity measured as TNF-alpha production in RAW 264.7 cells (ELISA); format: cell-based, mouse; conditions: MIF 10 ng/ml, 0 to 500 ng/ml TRX, LPS 100 ng/ml (FIG. 4)
Experimental: TRX's inhibition of MIF activity was confirmed by measuring a concentration of inflammatory cytokine TNF-α (to be described in detail below).
RAW 264.7 cells were cultured with RPMI 1640 medium containing 10% FCS, 100 U/ml penicillin and 100 μg/ml streptomycin in a 75 cm^2 flask.
RAW 264.7 cells were added to a 24 well plate (1×10^6/cell). MIF having a final concentration of 10 ng/ml and 0 to 500 ng/ml TRX were also added thereto, and left under the condition of 5% CO2 at 37° C. for 4 hours.
Further, 100 ng/ml of LPS was added to the plate (described as LPS (+)), and the plate was left under the condition of 5% CO2 at 37° C. for 4 hours. Then, the medium was collected.
Amount of the generated TNF-alpha (α) was measured with Duo Set ELISA Development system mouse TNF-α kit.
The measuring method was based on the protocol attached to the kit.

[6] = reduction state (DTT added to running buffer)

Molecule | effect of the test substance on the bond between rTRX and rMIF [1] | direct bond with rMIF (rMIF [2]; FIG. 6, Tables 1 and 2) | change of the dissociation constant value between oxidation state and reduction state (rMIF [2]) | Kd (rMIF [2]; oxidation state) [µM] | Kd (rMIF [2]; [6]) [µM] | further results
CCCCC[C@H](O)/C=C/[C@@H]1[C@H]2C/C(=C/CCCC(=O)O)O[C@H]2C[C@H]1O [Prostaglandin I2] | remarkably strengthen the bond between rTRX and rMIF | – | – | – | – | –
N[C@@H](CCC(=O)N[C@@H](CSN=O)C(=O)NCC(=O)O)C(=O)O [Nitrosoglutathione] | remarkably strengthen the bond between rTRX and rMIF | – | – | – | – | –
B1 | – | bonded directly with rMIF | almost no changes in the dissociation constant values | 25.3 | 29.7 | internalization of MIF into cells (ATL2 cells): inhibits the internalization of MIF into the ATL2 cells; bond between TRX and MIF outside cells (MIF [3]): bonds directly with MIF; bond between TRX and MIF in cells (MIF [4]): bonds directly with MIF; bond between rTRX and rMIF (surface plasmon resonance) (rMIF [5]): concentration-dependent; inhibition of rMIF activity (RAW 264.7 cells): inhibits the activity of rMIF depending on the concentration of rTRX; production of MIF-derived TNF-alpha (RAW 264.7 cells): inhibits the production of MIF-derived TNF-alpha
B2 | – | bonded directly with rMIF | strong bond with rMIF in the oxidation state | 3.95 | – | strength of the bond with rMIF compared with the other rTRX (rMIF [2]; FIG. 6, Tables 1 and 2): stronger than the bond between rWT TRX or rDM TRX and MIF
B3 | – | bonded directly with rMIF | almost no changes in the dissociation constant values | 11.9 | 16.6 | –
